Columns and labels:
[1] = target: T1, human CD40 (CD40-transfected HEK293T cells) (Homo sapiens, UniProt P25942); test: Bispecific VHH binding to CD40-transfected HEK293T cells, anti-llama IgG flow cytometry; details: 1 μM; FIG. 5
T1 construct: expressed in transfected cells; host or cells: HEK293T
Description: The embryonic kidney cell line HEK293T, either wildtype (WT) or transfected with human CD40, was grown in complete DMEM.
To assess VHH binding, cells were incubated with V19S76K-5C8 (1 μM) or medium control for 30 minutes at 37° C. Bound VHH was detected by incubation with FITC-conjugated goat-anti-llama IgG-heavy and light chain antibodies (A160-100F, Bethyl Laboratories Inc., Montgomery, Tex., USA) for 20 minutes at 4° C.
(§1) After 48 hours, cells were analyzed by flow cytometry as described in Example 2.

CD40 = target: T2, CD40 (Homo sapiens, UniProt P25942); test: CD40 agonistic activity in primary CLL cells, 48 h, flow cytometry; assay type: cell-based; details: FIG. 7A-C
T2 construct: Primary chronic lymphocytic leukemia (CLL) cells express CD40 on the cell surface; endogenous in cells; host or cells: primary CLL PBMCs from untreated CLL patients
T2 sequence (P25942 21-277): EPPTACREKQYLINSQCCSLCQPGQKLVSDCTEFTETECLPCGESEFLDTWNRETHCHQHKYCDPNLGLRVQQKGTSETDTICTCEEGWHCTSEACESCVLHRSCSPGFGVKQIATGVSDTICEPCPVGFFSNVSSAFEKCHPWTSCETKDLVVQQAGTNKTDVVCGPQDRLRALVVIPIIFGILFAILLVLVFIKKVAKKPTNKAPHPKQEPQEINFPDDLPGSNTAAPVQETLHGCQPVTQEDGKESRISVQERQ
Description: PBMCs (≥90% CD5^+CD19^+) from untreated CLL patients were obtained and cryopreserved as described in Example 3. Thawed cells were kept in complete IMDM.
To assess whether binding of the VHH to CD40 has agonistic effects, primary CLL PBMCs were cultured for 48 hours in the presence of VHH, medium control or recombinant multimeric CD40 ligand (rmCD40L; 100 ng/mL, Bioconnect).
After 48 hours, cells were harvested, washed and incubated with AF700-conjugated anti-CD19 (557921), FITC-conjugated anti-CD80 (6109965), APC-conjugated anti-CD86 (555660, all BD Biosciences), PE-conjugated anti-CD5 (12-0059-42, Thermo Fisher Scientific) and PECy7-conjugated anti-CD95 (305621, Biolegend, San Diego, Calif., USA) antibodies for 20 minutes at 4° C. Alternatively, after 48 hours, cells were harvested and viability was measured using Mitotracker Orange (25-minute incubation at 37° C.) and To-pro-3 (10-minute incubation at room temperature; both Thermo Fisher Scientific). Samples were measured on a FACSCanto cytometer (BD Biosciences) and analyzed with Flowjo MacV10.
To assess whether binding of the VHH has agonistic effects, primary CLL PBMCs were cultured with the indicated concentrations of V19S76K-5C8, medium control or rmCD40L for 48 hours and analyzed by flow cytometry as described in Example 4.

[2] = tested on: CD40-stimulated CLL cells; test: Cytotoxicity against CLL cells cultured on 3T3 or CD40L+ 3T40L fibroblasts; assay type: cell-based, human; details: with Vγ9Vδ2-T cells 1:1, V19S76K-5C8 100 nM; 3T3 versus 3T40L; FIG. 14
Description: Primary CLL cells were obtained, cryopreserved and thawed as described in Example 3. 3T3 fibroblasts, either WT or transfected with human CD40L (3T40L), were grown in complete IMDM. Vγ9Vδ2-T cells were grown as described in Example 7.
Primary CLL cells were cultured for 72 hours on irradiated 3T3 or 3T40L fibroblasts to induce CD40 stimulation.
Cells were then harvested and cultured overnight either with venetoclax (10 nM) as described in Example 10, or with Vγ9Vδ2-T cells and V19S76K-5C8 as described in Example 12. Viability measurement and flow cytometry were performed as described in Example 10.

primary CLL cells = test: Venetoclax sensitivity and Bcl-xL expression of rmCD40L-stimulated primary CLL cells; assay type: cell-based, human; details: V19S76K-5C8 1000 nM before rmCD40L 48 h
Vγ9Vδ2+ cells = target: T3, Vγ9Vδ2+ cells (Homo sapiens, UniProt A0JD36); test: Bispecific VHH binding to Vγ9Vδ2-T cell lines, flow cytometry, non-linear regression; details: FIGS. 6A and B, read-out: apparent Kd
T3 construct: endogenous in cells; host or cells: healthy donor-derived, expanded Vγ9Vδ2-T cell lines
T3 sequence (A0JD36 20-115): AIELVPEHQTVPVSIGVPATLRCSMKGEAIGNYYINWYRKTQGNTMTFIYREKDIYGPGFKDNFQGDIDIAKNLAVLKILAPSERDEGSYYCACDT
Description: The CLL-derived cell line CII was grown in complete IMDM. Purified Vγ9Vδ2-T cell lines were generated as described previously (de Bruin et al. (2017), Oncoimmunology 7(1): e1375641). In short, Vδ2^+-T cells were isolated from healthy donor (HD) PBMCs using FITC-conjugated anti-Vδ2 TCR (2257030, Sony, San Jose, Calif.) in combination with anti-mouse IgG microbeads (Miltenyi Biotec, Bergisch Gladbach, Germany) and cultured weekly with irradiated feeder mix consisting of PBMCs from 2 HDs, JY cells, IL-7 (10 U/mL), IL-15 (10 ng/mL, R&D Systems) and phytohaemagglutinin (PHA; R30852801, Thermo Fisher Scientific).
Purity of Vγ9Vδ2-T cell lines was maintained at >90%.
VHH binding was tested as described in Example 6.
as §1

[3] = tested on: Vγ9Vδ2-T cells present in the bone marrow of MM patients; test: Activation of Vγ9Vδ2-T cells in bone marrow mononuclear cells from MM patients; assay type: cell-based, human; details: 10 nM, overnight
Description: FIG. 17: V19S76K-5C8 is active against primary multiple myeloma. (A) Example of CD40 expression on primary MM cells, as detected using anti-CD40 PE antibody, clone MAB89, Beckman Couter, IM1936U. Representative histograms of 4 donors (B) Bone marrow of MM patients was cultured overnight in the presence or absence of healthy donor-derived Vγ9Vδ2-T cells in a 1:1 (Vγ9Vδ2-T:plasma cell) ratio in the absence or presence of V19S76K-5C8 (10 μM or 10 nM). Live plasma cells were quantified by flow cytometry using counting beads (n=5). (C, D) Mononuclear cells from the bone marrow of MM patients were cultured overnight with V19S76K-5C8 (VHH; 10 nM), aminobisphosphonate (ABP; 10 μM zoledronic acid (positive control)) or medium control in the presence of brefeldin, monensin and anti-CD107a to measure (C) cytokine production and (D) degranulation by flow cytometry (n=6). Data are presented as mean and SEM. *P<0.05, **P<0.01. (B-D: repeated-measures one-way ANOVA followed by Dunnett's post hoc test compared to condition without antibody).
Similarly, Vγ9Vδ2-T cells present in bone marrow mononuclear cells from MM patients degranulated after culture with the bispecific VHH V19S76K-5C8 (FIG. 17D).

T1 sequence (P25942 21-277): as the sequence (P25942 21-277) above

B1: V19S76K-5C8: tag-less bispecific anti-CD40-anti-Vγ9Vδ2-TCR VHH, SEQ ID NO:23 (protein)
VHH: QVQLQESGGGLVQAGGSLRLSCAASGRTFGRSAMGWFRQAPGKEREFVAAIGTRGGSTKYADSVKGRFTISTDNAKNTVYLQMDSLKPEDTAVYRCAVRGPGYPSAAIFQDEYHYWGQGTQVTVSSGGGGSEVQLVESGGGLVQAGGSLRLSCAASGRPFSNYAMGWFRQAPGKEREFVAAISWSGGSTSYADSVKGRFTISRDNAKNTVYLQMNSPKPEDTAIYYCAAQFSGADYGFGRLGIRGYEYDYWGQGTQVTVSS
modifications: antibody sequence
- binding to CD40-expressing HEK293T cells [1]: binds to the CD40-expressing HEK293T cells
- CD40 stimulation (expression of CD80, CD86 and CD95) (CD40): none of the V19S76K-5C8 concentrations tested increased the expression of CD80, CD86 or CD95
- cytotoxicity in unstimulated versus CD40-stimulated CLL cells [2]: induced cytotoxicity in unstimulated and CD40-stimulated CLL cells to a similar extent
- sensitivity to venetoclax of rmCD40L-stimulated primary CLL cells (primary CLL cells; then venetoclax 24 h, FIG. 9A): as sensitive to venetoclax as unstimulated CLL cells
- Bcl-xL expression (primary CLL cells; FIG. 9B): returned to unstimulated levels
- Kd (Vγ9Vδ2+ cells): 1.2 nM
- production of IFN-γ and TNF-α by bone marrow Vγ9Vδ2-T cells ([3]; FIG. 17C): triggered to produce the pro-inflammatory cytokines IFN-γ and TNF-α
- degranulation of bone marrow Vγ9Vδ2-T cells ([3]; FIG. 17D): degranulated

— patent US20220135694A1, “NOVEL CD40-BINDING ANTIBODIES” (LAVA THERAPEUTICS B.V., priority 2019, published 2022)
